Biological target: the molecule itself
Experiment: NMR solution structure; 0.6 mM in 5 mM Tris-Cl pH 7.6, 50 mM NaCl, 0.05% NaN3, 308 K; intermolecular distance restraints from a 3D 13C-filtered/13C-separated NOESY on a mixed 12C/13C sample

B1: carboxy-terminal domain (CTD) fragment of λ Ea22 (102–182) (domain or fragment, bacteriophage λ)
chain: SNEVREDGNQFLVVRHPGKTPVIKHCTGDLEEFLRQLIEQDPLVTIDIITHRYYGVGGQWVQDAGEYLHMMSDAGIRIKGEIETAV
notes: Ea22 of bacteriophage lambda, carboxy-terminal domain, residues 102-182 of the 182-residue protein; gene synthesized by ATUM, in plasmid pD441NH; Uniformly 13C,15N (or 15N) labelled for NMR; a mixed 12C/13C dimer was made by mixing 12C/14N and 13C/15N proteins 1:1 in 6 M urea and diluting rapidly; Dimer printed as 21.4 kDa; also called λ Ea22 CTD; Ea22 CTD; not shown: 6xHis, N-terminal, kept
stoichiometry N: 2

Reference: publication PMC10834534, “The NMR structure of the Ea22 lysogenic developmental protein from lambda bacteriophage” (Scientific Reports, 2024)
